Consider five molecules from article PMC9142583, “Structural basis for broad anti-phage immunity by DISARM” (Nature Communications, 2022).

The target in data set [1] is T1, DrmA;DrmB (Serratia sp. SCBI;Serratia sp. SCBI, UniProt A0A979HMQ0;A0A979HMQ1 1-1325;1-619, |). Description: EMSA; 1 µM protein; EMSA: 150 mM NaCl, 25 mM HEPES pH 7.4, 30 min room temperature, 5 nM DNA; 1.5% agarose, 1x TBE. The conditions noted are these: protein: recombinant;recombinant, tags: none stated;tagged (Ni-NTA purification), copies: 1;1, label: 5'-Cy5 on strand 1.

In data set [2] the target is T2, DrmA(∆loop) / DrmA(∆TL);DrmB (Serratia sp. SCBI;Serratia sp. SCBI, UniProt A0A979HMQ0;A0A979HMQ1 1-1325;1-619, del181-233|). The description is as above. The conditions noted are these: protein: recombinant;recombinant, tags: none stated;tagged (Ni-NTA purification), copies: 1;1, label: 5'-Cy5 on strand 1.
For data set [3], the target named is T1, DrmA;DrmB. Description: EMSA; binding at 1 µM protein or higher; smeared (dissociation); EMSA: 150 mM NaCl, 25 mM HEPES pH 7.4, 30 min room temperature, 5 nM DNA; 1.5% agarose, 1x TBE. The following applies: protein: recombinant;recombinant; tags: none stated;tagged (Ni-NTA purification); copies: 1;1; label: 5'-Cy5; single strand.
For data set [4], the target named is T2, DrmA(∆loop) / DrmA(∆TL);DrmB. Description: EMSA; no dissociation smear; second super-shift at 1 µM or higher; EMSA: 150 mM NaCl, 25 mM HEPES pH 7.4, 30 min room temperature, 5 nM DNA; 1.5% agarose, 1x TBE. The conditions noted are these: protein: recombinant;recombinant; tags: none stated;tagged (Ni-NTA purification); copies: 1;1; label: 5'-Cy5; single strand. Background: A gel shift assay detects complexes by their altered migration in electrophoresis.

For data set [5], the target named is T1, DrmA;DrmB. Description: cryo-EM; 1 mM ADP; EMSA: 150 mM NaCl, 25 mM HEPES pH 7.4, 30 min room temperature, 5 nM DNA; 1.5% agarose, 1x TBE. The following applies: protein: recombinant;recombinant; tags: none stated;tagged (Ni-NTA purification); copies: 1;1; label: none; hairpin; 19-bp stem, 5-nt loop, 5' tail 7 nt, 3' tail 21 nt (Methods: 6 and 20).

B1: 3'ovh DNA (75-nt + 5' block) (mixed)
DNA 1: ATTTTGACAGCCCACATGGCTTGATGAGTGGCGCACTCGCCAGCCTGAGCATGGCGAAAACTCCTCCAGTCTGCT
DNA 2: GCCATGTGGGCTGTCAAAAT
As to B1, the binding result is reported as “no binding” with DrmA;DrmB [1] (3' overhang 55 nt) and “binds” in data set [2] (3' overhang 55 nt).

B2: 75-nt Cy5 ssDNA (ssDNA)
DNA: B1 DNA 1
Turning to B2, the binding result (in the data set with DrmA;DrmB [3]; in data set [4]) was “binds” in each case.

B3: 75-bp dsDNA (dsDNA)
DNA 1: B1 DNA 1
DNA 2: AGCAGACTGGAGGAGTTTTCGCCATGCTCAGGCTGGCGAGTGCGCCACTCATCAAGCCATGTGGGCTGTCAAAAT
On to B3, for which the figures for the binding result (with DrmA;DrmB [1] (blunt); in data set [2] (blunt)) were “no binding” and “binds”, respectively.

B4: 5'ovh DNA (75-nt + 3' block) (mixed)
DNA 1: B1 DNA 1
DNA 2: AGCAGACTGGAGGAGTTTTC
Consider B4, for which the binding result (with DrmA;DrmB [1] (5' overhang 55 nt); in data set [2] (5' overhang 55 nt)) was “binds” in each case.

B5: DNA stem loop (forked hairpin) (structured_DNA)
DNA: TTTTTTTCATCGATGAGCACTGCTATTCCCTAGCAGTGCTCATCGATGATTTTCATCGATGAGCGGTTTT
modifications: none (unmethylated)
Turning to B5, in the data set with DrmA;DrmB [5], the binding result is “binds”.
